These results are taken from article PMC6144793 (Nucleic Acids Research, 2018).

The data set deals with the molecule itself. The data set is described as follows: SEC-MALS.

B1: His6-tagged Hvo_0019 (enzyme, Haloferax volcanii)
chain: MSVRDEFDAWAADGRDKGMEDRHWHTAKHALARMPVEEGDTVVDLGTGSGYALRALRDTKGIGRGFGLDGSPEMVQNARAYTDTDDLSFLVGDFDDLPFDDDSVDHVWSMEAFYYAADPHHTLEEIARILKPGGTFYCAVNYYEENVHSHEWQEHISIDMTRWSHAEYREAFRDAGLHVAEQDSIADLDIDIPAATEFPTDDWETREAMVERYRTFGTLLTVGVAP
With B1, the binding result is recorded as “binds”.
